Laboratory results from article PMC12198324.

Key:
[1] = molecular target: rat µ opioid receptor (HA-µOR), stably expressed in HEK293 cells (rat) (UniProt P33535); experiment: radioligand binding; competition with 5 nM [3H]-naloxone as tracer; 20 µg total membranes of HEK293-µOR cells in DMEM, 37 °C, 1 h, filtration over GF/C filters; Ki
[2] = molecular target: rat µ opioid receptor (HA-µOR), stably expressed in HEK293 cells (rat) (UniProt P33535)

UniProt P33535, sequence (P33535 whole entry): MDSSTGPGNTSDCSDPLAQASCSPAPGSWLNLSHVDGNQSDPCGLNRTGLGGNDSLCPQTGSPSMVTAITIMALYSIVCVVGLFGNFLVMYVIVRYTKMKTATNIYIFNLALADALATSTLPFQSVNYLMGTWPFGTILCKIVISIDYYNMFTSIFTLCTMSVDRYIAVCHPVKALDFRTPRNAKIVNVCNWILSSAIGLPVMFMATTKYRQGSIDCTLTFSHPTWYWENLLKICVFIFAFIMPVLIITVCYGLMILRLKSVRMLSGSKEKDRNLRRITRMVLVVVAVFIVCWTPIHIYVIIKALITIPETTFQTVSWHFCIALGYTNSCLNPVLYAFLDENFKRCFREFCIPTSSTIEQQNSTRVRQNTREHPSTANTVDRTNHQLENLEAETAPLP

- Ki [1]: 39.7 nM
- ERK-1/2 phosphorylation after 2.5 min in HEK293-µOR cells (western blot), EC50 [2]: 5.8 nM
- inhibition of FSK (10 µM) induced cAMP accumulation in HEK293-µOR cells, EC50 [2]: 4.17 nM
Substance: endomorphin-1 (peptide)
